Source: paper PMC6702220 (Communications Biology, 2019)

Biological target: the molecule itself
Assay: crystal structure; hanging drop, 22 °C; 5 mg/ml PlsX, 1 mM 1-oxohexadecylphosphoramidic acid, 0.08 M Tris-HCl pH 8.0, 0.16 M Li2SO4, 21% PEG 4000, 0.012 mM CYMAL 7, 5% t-butanol; 2.30 Å; two subunits in the asymmetric unit

B1: Bacillus subtilis phosphate acyltransferase PlsX (enzyme, UniProt P71018 1-333, looked up)
chain: MRIAVDAMGGDHAPKAVIDGVIKGIEAFDDLHITLVGDKTTIESHLTTTSDRITVLHADEVIEPTDEPVRAVRRKKNSSMVLMAQEVAENRADACISAGNTGALMTAGLFIVGRIKGIDRPALAPTLPTVSGDGFLLLDVGANVDAKPEHLVQYAIMGSVYSQQVRGVTSPRVGLLNVGTEDKKGNELTKQTFQILKETANINFIGNVEARDLLDDVADVVVTDGFTGNVTLKTLEGSALSIFKMMRDVMTSTLTSKLAAAVLKPKLKEMKMKMEYSNYGGASLFGLKAPVIKAHGSSDSNAVFHAIRQAREMVSQNVAALIQEEVKEEKTDE
notes: Phosphate acyltransferase PlsX, Bacillus subtilis; plsX gene amplified from genomic DNA and inserted into pET28a between NcoI and XhoI; Crystallised with the product analog 1-oxohexadecylphosphoramidic acid (palmitoyl phosphoramide), which was not found in the solved structure; also called B. subtilis PlsX; recombinant PlsX; source: E. coli C43 (DE3), purified (HisTrap HP, gel filtration on …)
- stoichiometry N: 2
